# Residue numbers refer to the chain shown, from its start.
# B1: hAb005LH1L1 (antibody, human IgG1, V domains shown)
# VH: EVQLVQSGAEVKKPGASVKVSCKASGYTFTDYEMHWVRQAPGQGLEWMGAIDPETGNTAYIQKFKGRVTMTTDKSTSTAYMELRSLRSDDTAVYYCTRFYSYSHWGQGTTVTVSS
# VL: DIVMTQTPLSLPVTPGEPASISCRSSQSLVHSNGNTYLHWYLQKPGQSPQLLIYKVSNRFSGVPDRFSGSGSGTDFTLKISRVEAEDVGVYYCSQNTHVPPTFGGGTKVEIK
# B2: hAb005LH3L1b (antibody, human IgG1, V domains shown)
# VH: B1 VH with M48I, V68A, M70L
# VL: B1 VL with G34R
# B3: hAb005LH3L1 (antibody, human IgG1, V domains shown)
# VH: B1 VH with M48I, V68A, M70L
# VL: B1 VL
# B4: hAb005LH2L1 (antibody, human IgG1, V domains shown)
# VH: B1 VH with M70L
# VL: B1 VL
# B5: hAb003LH1L1a (antibody, human IgG1, V domains shown)
# VH: EVQLVQSGAEVKKPGSSVKVSCKASGYTFSDYEMHWVRQAPGQGLEWMGTIDPETGNTAYTQKFMDRVTITADKSTSTAYMELSSLRSEDTAVYYCTRGYSFTYWGQGTLVTVSS
# VL: DIVMTQTPLSLPVTPGEPASISCRSSQNIVHSDGNTYLQWYLQKPGQSPQLLIFKVSNRFSGVPDRFSGSGSGTDFTLKISRVEAEDVGVYYCFQGSHVPFTFGQGTKLEIK
# B6: hAb007LH1L1a (antibody, human IgG1, V domains shown)
# VH: B5 VH with T61N, M65K, D66G, G99P, F102L
# VL: B5 VL with N28S, I29F, N35D, F54Y, F101Y
# B7: hAb007LH3L1a (antibody, human IgG1, V domains shown)
# VH: B5 VH with S30T, T61N, M65K, D66G, I70L, G99P, F102L
# VL: B5 VL with N28S, I29F, N35D, F54Y, F101Y
# B8: hAb005LH1L1a (antibody, human IgG1, V domains shown)
# VH: B1 VH
# VL: B1 VL with N33D
# B9: hAb003LH2L1 (antibody, human IgG1, V domains shown)
# VH: B5 VH with T28R, S30T
# VL: B5 VL with D33N
# B10: hAb003LH3L1a (antibody, human IgG1, V domains shown)
# VH: B5 VH with T28R, S30T, I70L
# VL: B5 VL
# B11: hAb003LH3L1 (antibody, human IgG1, V domains shown)
# VH: B5 VH with T28R, S30T, I70L
# VL: B5 VL with D33N
# B12: hAb006LH2L1b (antibody, human IgG1, V domains shown)
# VH: B5 VH with S30T, M34I, T50A, E54K, T61N, D66G, G99Y, Y100F, T103A
# VL: B5 VL with N28T, I29F, D33N, G34A, F54Y, F101Y
# B13: hAb005LH2L1a (antibody, human IgG1, V domains shown)
# VH: B1 VH with M70L
# VL: B1 VL with N33D
# B14: hAb005LH3L1a (antibody, human IgG1, V domains shown)
# VH: B1 VH with M48I, V68A, M70L
# VL: B1 VL with N33D
# B15: hAb007LH2L1a (antibody, human IgG1, V domains shown)
# VH: B5 VH with S30T, T61N, M65K, D66G, G99P, F102L
# VL: B5 VL with N28S, I29F, N35D, F54Y, F101Y
# B16: hAb003LH3L1b (antibody, human IgG1, V domains shown)
# VH: B5 VH with T28R, S30T, I70L
# VL: B5 VL with D33N, G34R
# B17: hAb007LH1L1b (antibody, human IgG1, V domains shown)
# VH: B5 VH with T61N, M65K, D66G, G99P, F102L
# VL: B5 VL with N28S, I29F, D33N, G34R, N35D, F54Y, F101Y
# B18: hAb007LH1L1 (antibody, human IgG1, V domains shown)
# VH: B5 VH with T61N, M65K, D66G, G99P, F102L
# VL: B5 VL with N28S, I29F, D33N, N35D, F54Y, F101Y
# B19: hAb006LH1L1 (antibody, human IgG1, V domains shown)
# VH: B5 VH with M34I, T50A, E54K, T61N, D66G, G99Y, Y100F, T103A
# VL: B5 VL with N28T, I29F, D33N, F54Y, F101Y
# B20: hAb006LH3L1a (antibody, human IgG1, V domains shown)
# VH: B5 VH with S30T, M34I, T50A, E54K, T61N, D66G, I70L, G99Y, Y100F, T103A
# VL: B5 VL with N28T, I29F, F54Y, F101Y
# B21: hAb003LH2L1a (antibody, human IgG1, V domains shown)
# VH: B5 VH with T28R, S30T
# VL: B5 VL
# Target: monkey GPC3-His protein (monkey)
# Test: ELISA, monkey GPC3-His coated; antibody 13.33 nM
row,OD450 nm,Binder
1,1.22,B1
2,1.27,B2
3,1.13,B3
4,1.15,B4
5,2.35,B5
6,2.44,B6
7,2.37,B7
8,0.195,B8
9,2.44,B9
10,2.3,B10
11,2.36,B11
12,2.46,B12
13,0.276,B13
14,0.161,B14
15,2.39,B15
16,2.4,B16
17,2.37,B17
18,2.54,B18
19,2.56,B19
20,2.09,B20
21,2.34,B21

# Target: monkey GPC3-His protein (monkey)
# Test: ELISA, monkey GPC3-His coated; antibody 0.004 nM
row,OD450 nm,Binder
1,0.103,B1
2,0.237,B2
3,0.226,B3
4,0.222,B4
5,0.148,B5
6,0.097,B6
7,0.079,B7
8,0.045,B8
9,0.413,B9
10,0.202,B10
11,0.357,B11
12,0.34,B12
13,0.04,B13
14,0.041,B14
15,0.093,B15
16,0.432,B16
17,0.128,B17
18,0.122,B18
19,0.369,B19
20,0.057,B20
21,0.16,B21

# Target: monkey GPC3-His protein (monkey)
# Test: ELISA, monkey GPC3-His coated; antibody 66.66 nM
row,OD450 nm,Binder
1,1.1,B1
2,1.18,B2
3,1.24,B3
4,1.2,B4
5,2.42,B5
6,2.36,B6
7,2.34,B7
8,0.578,B8
9,2.51,B9
10,2.39,B10
11,2.53,B11
12,2.69,B12
13,0.652,B13
14,0.527,B14
15,2.45,B15
16,2.53,B16
17,2.54,B17
18,2.56,B18
19,2.48,B19
20,2.18,B20
21,2.23,B21

# Target: monkey GPC3 on HEK293T-monkey GPC3 cells (monkey)
# Test: FACS on HEK293T-monkey GPC3 cells
EC50 [nM],Max MFI [MFI],Binder
2.17,23400,B1
2.37,22100,B2
3.09,22200,B3
2.88,23400,B4
4.77,22600,B5
71.6,2910,B8
1.32,29600,B9
3.27,24500,B10
1.58,30900,B11
32.8,3490,B13
112,2920,B14
1.28,31300,B16
1.53,33500,B19
3.09,23200,B21

# Target: monkey GPC3-His protein (monkey)
# Test: ELISA, monkey GPC3-His coated; antibody 0.11 nM
row,OD450 nm,Binder
1,0.94,B1
2,1.11,B2
3,0.997,B3
4,1.13,B4
5,1.48,B5
6,0.605,B6
7,0.337,B7
8,0.066,B8
9,2.16,B9
10,1.59,B10
11,1.85,B11
12,2.1,B12
13,0.042,B13
14,0.038,B14
15,0.468,B15
16,2.1,B16
17,0.958,B17
18,1.46,B18
19,2.02,B19
20,0.226,B20
21,1.37,B21

# Target: monkey GPC3-His protein (monkey)
# Test: ELISA, monkey GPC3-His coated; antibody 0.0008 nM
row,OD450 nm,Binder
1,0.069,B1
2,0.088,B2
3,0.088,B3
4,0.164,B4
5,0.087,B5
6,0.067,B6
7,0.069,B7
8,0.06,B8
9,0.175,B9
10,0.089,B10
11,0.16,B11
12,0.128,B12
13,0.099,B13
14,0.04,B14
15,0.065,B15
16,0.165,B16
17,0.071,B17
18,0.085,B18
19,0.121,B19
20,0.044,B20
21,0.15,B21

# Target: monkey GPC3-His protein (monkey)
# Test: ELISA, monkey GPC3-His coated; antibody 0.53 nM
row,OD450 nm,Binder
1,1.16,B1
2,1.27,B2
3,1.15,B3
4,1.28,B4
5,2.2,B5
6,1.57,B6
7,1.08,B7
8,0.053,B8
9,2.58,B9
10,2.21,B10
11,2.22,B11
12,2.57,B12
13,0.056,B13
14,0.042,B14
15,1.41,B15
16,2.5,B16
17,1.97,B17
18,2.43,B18
19,2.5,B19
20,1.05,B20
21,2.12,B21

# Target: monkey GPC3-His protein (monkey)
# Test: ELISA, monkey GPC3-His coated; antibody 2.67 nM
row,OD450 nm,Binder
1,1.21,B1
2,1.33,B2
3,1.27,B3
4,1.24,B4
5,2.29,B5
6,2.21,B6
7,1.89,B7
8,0.111,B8
9,2.57,B9
10,2.38,B10
11,2.36,B11
12,2.7,B12
13,0.136,B13
14,0.098,B14
15,2.1,B15
16,2.4,B16
17,2.39,B17
18,2.6,B18
19,2.43,B19
20,1.95,B20
21,2.17,B21

# Target: monkey GPC3-His protein (monkey)
# Test: ELISA, monkey GPC3-His coated; antibody 0.02 nM
row,OD450 nm,Binder
1,0.594,B1
2,0.663,B2
3,0.609,B3
4,0.649,B4
5,0.483,B5
6,0.197,B6
7,0.135,B7
8,0.039,B8
9,1.22,B9
10,0.633,B10
11,0.963,B11
12,0.924,B12
13,0.041,B13
14,0.039,B14
15,0.182,B15
16,1.17,B16
17,0.305,B17
18,0.491,B18
19,1.1,B19
20,0.08,B20
21,0.475,B21
